Reference: paper PMC3925836 (Advanced healthcare materials, 2013)
Substitutions are numbered along the chain they refer to.

T1: GPSP-P40-I60
T1 chain: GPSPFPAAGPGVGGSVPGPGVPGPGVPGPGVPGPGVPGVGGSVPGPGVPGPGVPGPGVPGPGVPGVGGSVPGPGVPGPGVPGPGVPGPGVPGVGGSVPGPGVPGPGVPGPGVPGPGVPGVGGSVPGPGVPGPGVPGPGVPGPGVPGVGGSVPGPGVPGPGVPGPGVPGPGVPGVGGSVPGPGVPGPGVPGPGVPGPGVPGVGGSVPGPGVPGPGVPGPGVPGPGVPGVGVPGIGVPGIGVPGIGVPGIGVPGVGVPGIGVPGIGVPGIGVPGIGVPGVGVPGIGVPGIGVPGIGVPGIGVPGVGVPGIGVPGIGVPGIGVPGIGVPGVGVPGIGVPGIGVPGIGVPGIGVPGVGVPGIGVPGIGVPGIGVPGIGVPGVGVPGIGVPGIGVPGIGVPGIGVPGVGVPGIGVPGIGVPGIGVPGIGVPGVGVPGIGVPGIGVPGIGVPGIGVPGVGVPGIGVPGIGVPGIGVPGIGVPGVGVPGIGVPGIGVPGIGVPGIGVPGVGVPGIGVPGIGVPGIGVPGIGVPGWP

B1: GPRP-A80-I60 (designed binder)
chain: GPRPFPAAGPGVGVPGAGVPGAGVPGAGVPGAGVPGVGVPGAGVPGAGVPGAGVPGAGVPGVGVPGAGVPGAGVPGAGVPGAGVPGVGVPGAGVPGAGVPGAGVPGAGVPGVGVPGAGVPGAGVPGAGVPGAGVPGVGVPGAGVPGAGVPGAGVPGAGVPGVGVPGAGVPGAGVPGAGVPGAGVPGVGVPGAGVPGAGVPGAGVPGAGVPGVGVPGAGVPGAGVPGAGVPGAGVPGVGVPGAGVPGAGVPGAGVPGAGVPGVGVPGAGVPGAGVPGAGVPGAGVPGVGVPGAGVPGAGVPGAGVPGAGVPGVGVPGAGVPGAGVPGAGVPGAGVPGVGVPGAGVPGAGVPGAGVPGAGVPGVGVPGAGVPGAGVPGAGVPGAGVPGVGVPGAGVPGAGVPGAGVPGAGVPGVGVPGIGVPGIGVPGIGVPGIGVPGVGVPGIGVPGIGVPGIGVPGIGVPGVGVPGIGVPGIGVPGIGVPGIGVPGVGVPGIGVPGIGVPGIGVPGIGVPGVGVPGIGVPGIGVPGIGVPGIGVPGVGVPGIGVPGIGVPGIGVPGIGVPGVGVPGIGVPGIGVPGIGVPGIGVPGVGVPGIGVPGIGVPGIGVPGIGVPGVGVPGIGVPGIGVPGIGVPGIGVPGVGVPGIGVPGIGVPGIGVPGIGVPGVGVPGIGVPGIGVPGIGVPGIGVPGVGVPGIGVPGIGVPGIGVPGIGVPGWP
B2: GPSP-A80-I60 (designed binder)
chain: B1 chain with R3S
B3: GPRP-P40-I60 (designed binder)
chain: T1 chain with S3R

What was measured:
[1] = biological target: T1, GPSP-P40-I60; assay: SYPRO Orange thermal transition assay
[2] = biological target: the molecule itself; assay: dynamic light scattering

Row | Binder | binding result [1] | binding result [2]
1 | B1 | binds | –
2 | B2 | binds | binds
3 | B3 | – | binds
